According to paper PMC4854285:

Molecular target: biotinylated peptide composed of residues 656-683 of the gp41 MPER (RRR-…-RRK-biotin) (HIV-1)
Test: SPR

In the case of 10E8 antigen-binding fragment (Fab), the Kd is reported as 17 nM.
